B1: TR2: human testicular orphan nuclear receptor 2, 603 amino acids (protein, UniProt P13056 1-603, looked up)
chain: MATIEEIAHQIIEQQMGEIVTEQQTGQKIQIVTALDHNTQGKQFILTNHDGSTPSKVILARQDSTPGKVFLTTPDAAGVNQLFFTTPDLSAQHLQLLTDNSPDQGPNKVFDLCVVCGDKASGRHYGAVTCEGCKGFFKRSIRKNLVYSCRGSKDCIINKHHRNRCQYCRLQRCIAFGMKQDSVQCERKPIEVSREKSSNCAASTEKIYIRKDLRSPLTATPTFVTDSESTRSTGLLDSGMFMNIHPSGVKTESAVLMTSDKAESCQGDLSTLANVVTSLANLGKTKDLSQNSNEMSMIESLSNDDTSLCEFQEMQTNGDVSRAFDTLAKALNPGESTACQSSVAGMEGSVHLITGDSSINYTEKEGPLLSDSHVAFRLTMPSPMPEYLNVHYIGESASRLLFLSMHWALSIPSFQALGQENSISLVKAYWNELFTLGLAQCWQVMNVATILATFVNCLHNSLQQDKMSTERRKLLMEHIFKLQEFCNSMVKLCIDGYEYAYLKAIVLFSPDHPSLENMEQIEKFQEKAYVEFQDYITKTYPDDTYRLSRLLLRLPALRLMNATITEELFFKGLIGNIRIDSVIPHILKMEPADYNSQIIGHSI
modifications: full-length
notes: human testicular orphan nuclear receptor 2, 603 amino acids
B2: TR4: human testicular orphan nuclear receptor 4, SEQ ID NO:16; expressed from plasmid or in vitro translated (protein)
chain: MTSPSPRIQIISTDSAVASPQRIQGSEPASGPLSVFTSLNKEKIVTDQQTGQKIQIVTAVDASGSPKQQFILTSPDGAGTGKVILASPETSSAKQLIFTTSDNLVPGRIQIVTDSASVERLLGKTDVQRPQVVEYCVVCGDKASGRHYGAVSCEGCKGFFKRSVRKNLTYSCRSSQDCIINKHHRNRCQFCRLKKCLEMGMKMESVQSERKPFDVQREKPSNCAASTEKIYIRKDLRSPLIATPTFVADKDGARQTGLLDPGMLVNIQQPLIREDGTVLLATDSKAETSQGALGTLANVVTSLANLSESLNNGDTSEIQPEDQSASEITRAFDTLAKALNTTDSSSSPSLADGIDTSGGGSIHVISRDQSTPIIEVEGPLLSDTHVTFKLTMPSPMPEYLNVHYICESASRLLFLSMHRARSIPAFQGLGQDCNTSLVRACWNELFTLGLAQCAQVMSLSTILAAIVNHLQNSIQEDKLSGDRIKQVMEHIWKLQEFCNSMANWDIDGYEYAYLKAIVLFSPDHPGLTSTSQIEKFQEKAQMELQDYVQKTYSEDTYRLARILVRLPALRLMSSNITEELFFTGLIGNVSIDSIIPYILKMETAEYNGQITGVSL

Biological target: T1, AR (Homo sapiens, UniProt P10275, DEL79-80/DUP473-473)
T1 sequence (P10275 with tags, fused parts or gaps DEL79-80/DUP473-473): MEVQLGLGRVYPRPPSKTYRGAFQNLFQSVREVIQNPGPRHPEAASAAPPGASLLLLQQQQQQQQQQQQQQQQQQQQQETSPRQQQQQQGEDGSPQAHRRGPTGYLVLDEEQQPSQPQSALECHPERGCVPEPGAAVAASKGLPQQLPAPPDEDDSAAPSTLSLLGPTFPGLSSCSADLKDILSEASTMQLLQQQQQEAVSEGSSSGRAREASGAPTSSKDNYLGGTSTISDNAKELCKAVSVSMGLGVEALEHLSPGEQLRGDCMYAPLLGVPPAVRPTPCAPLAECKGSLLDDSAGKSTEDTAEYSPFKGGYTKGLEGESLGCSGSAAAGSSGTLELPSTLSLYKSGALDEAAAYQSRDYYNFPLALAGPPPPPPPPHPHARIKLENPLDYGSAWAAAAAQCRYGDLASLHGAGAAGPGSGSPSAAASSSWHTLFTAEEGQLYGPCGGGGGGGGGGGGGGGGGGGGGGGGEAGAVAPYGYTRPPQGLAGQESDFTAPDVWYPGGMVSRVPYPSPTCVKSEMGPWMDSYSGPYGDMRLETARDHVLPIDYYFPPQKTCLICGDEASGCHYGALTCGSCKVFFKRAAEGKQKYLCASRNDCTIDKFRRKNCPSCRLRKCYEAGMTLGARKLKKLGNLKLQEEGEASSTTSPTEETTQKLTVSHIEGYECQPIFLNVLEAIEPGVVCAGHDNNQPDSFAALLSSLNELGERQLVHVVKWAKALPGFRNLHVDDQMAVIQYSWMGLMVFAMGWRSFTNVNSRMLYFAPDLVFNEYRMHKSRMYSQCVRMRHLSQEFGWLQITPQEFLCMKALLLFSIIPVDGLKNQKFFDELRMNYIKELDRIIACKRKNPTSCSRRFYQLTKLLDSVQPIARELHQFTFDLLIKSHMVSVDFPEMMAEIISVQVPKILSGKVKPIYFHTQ
Assay: AR-mediated transactivation reporter assay (MMTV / PSA reporters)
Type: cell-based
Design: A full-length AR(pSG5AR) was co-transfected with GAL4-TR4E; expressed in transfected cells; host or cells: COS, H1299, CHO, DU145, PC-3
Conditions: for Transactivation by the AR receptor: similar procedures, no details given; for Activity AR (effect of regulator on transcription activity): Table 5
Excerpt: Cells were routinely maintained in DMEM with 10% heat-inactivated fetal bovine serum. The cells were transfected using a modified calcium phosphate precipitation method, Mizokami, & Chang, J: Biol. Chem. 269,25655-25659 (1994), or SuperFect (Qiagen). To normalize the transfection efficiency, the (3-galactosidase expression ver and pRL-TK were co-transfected in CAT assay and in Dual-luciferase reporter assay system (Promega), respectively.
Like TR4, AR itself acts as a transcription factor to activate many androgen target genes. 500 ng of MMTV-Luc (FIG. 4A), or PSA-Luc (FIG. 4B), were co-transfected with 40 ng pCMV-AR (lane 2-3) with increasing amounts of pCMX-TR4 (as indicated in FIG. 4). […] After 16-18 hours incubation, cells were harvested for Dual-rnciferase reporter assay. As expected, in COS, H1299, and CHO cells, AR activated MMTV luciferase activity in a DHT-dependent manner (FIG. 4A, lanes 2 and 3), which could then be repressed by the addition of TR4 (lanes 6 to 8). […] Similar suppression effects also occurred when the MMTV-ruciferase reporter was replaced with the PSA-Iuciferase reporter, another AR target gene (FIG. 4B).
As GR and PR can also induce MMTV—luciferase reporter, Beato, M., Ce//56, 335-344 (1989), determining if TR4 could also repress OR- or PR-mediated transactivation was analyzed. Three μg of MMTV-Luc was co-transfected with 4 μg of pCMX-TR4 in the presence of 1 μg of pSG5AR, pSG5GR, or pSG5PR by modified calcium-phosphate method. […] Dual-luciferase reporter assays were performed. PRL-TK was used to normalize the transfection efficiency. […] Similar results were observed when the same experiments of AR-mediated transactivation were repeated in DU145 cells.
Human prostate cancer PC-3 cells were maintained in DMEM containing penicillin (25 units/ml), streptomycin ([…]), and 5% FCS. Human prostate cancer LNCaP cells were maintained in RPMI 1640 containing penicillin (25 units/ml), streptomycin ([…]), and 10% FCS. PC-3 cell were transfected using the calcium phosphate precipitation method as described previously [Mu X. M. et al. (1998) Endocrine 9:27-32], and LNCaP cells were transfected by using Superfect™ according to the manufacturer's procedures (Qiagen, Chatsworth, Calif.). CAT assay was performed as described previously [Lee Y. et al. (1999) Proc Natl Acad Sci USA 96:14724-14729], and is herein incorporated by reference at least for material related to the CAT assays].

Row | Molecule | Transactivation by the AR receptor | MMTV-CAT and PSA-CAT activity (PC-3 cells, 10 nM DHT, 2, 4 and 7 μg pCMV-TR2) | AR-mediated transcription (MMTV-Luc) (PC-3 cells, Example 2) | Activity AR (effect of regulator on transcription activity) | AR-activated MMTV luciferase activity (similar with PSA-luciferase) (COS, H1299 and CHO cells, 10 nM DHT, increasing pCMX-TR4) | AR-mediated MMTV-luciferase transactivation (H1299 cells (similar in DU145), 4 μg pCMX-TR4, 10 nM DHT)
1 | RXR: retinoid X receptor, another member of the steroid receptor superfamily | suppress |  |  |  |  | 
2 | B1 | suppress | strongly suppresses | suppress | Down |  | 
3 | B2 |  |  |  | Down | repressed | repress

— patent publication US20030235860A1, “Interactions between AR, ER, TR2, and TR4” (priority 1999, published 2003)
